In the supplement of paper PMC11780869:

Tested on: Bacillus subtilis
Assay: cleaved RNA product abundance (RNA/gDNA barcode ratio) relative to median wild-type variant (ratio to wild type); higher = more accumulation of the downstream cleavage product
Conditions: cleavage site: cggR-gapA (positions -7 to +36 mutated)
In short: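 Cleaved product abundance was measured with barcoded reporter mRNAs (truncated aprE or tetM) carrying mutagenized RNase Y cleavage-site windows in the B. subtilis chromosome. Cultures in LB at 37°C grew from OD600 0.0003 to 0.3. Gel-selected cleaved RNA was reverse transcribed and barcode-sequenced with genomic DNA barcodes, and the RNA:gDNA barcode ratio per construct was scaled to the median construct bearing the unmutated site.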

[1] = experiment (reporter, strain, medium): exp 2b: truncated aprE reporter, strain BJT200
[2] = experiment (reporter, strain, medium): exp 4a: truncated aprE reporter, strain BJT201 with 2% xylose (RNase J1 expressed)

| Sequence | cleaved RNA product abundance [1] | cleaved RNA product abundance [2] | cleaved RNA product abundance (experiment (reporter, strain, medium): exp 6: tetM reporter, strain 168) |
| --- | --- | --- | --- |
| ACAGACGAAGGAGCCGCAAAGAAGTTATTAAGGTATGAATAATACCTCAATATAAATATCTCTCACTTATTTAAA | 1 | 1.16 |  |
| ACAGACGAAGGAGCCGCAAAGAAGTTATTAAGGTATGAATAATCACTCAATATAAATATCTCTCACTTATTTAAA |  | 0.142 |  |
| ACAGACGAAGGAGCCGCAAAGAAGTTATTAAGGTATGAATAATCCATCAATATAAATATCTCTCACTTATTTAAA | 0.125 | 0.145 |  |
| ACAGACGAAGGAGCCGCAAAGAAGTTATTAAGGTATGAATAATCCCACAATATAAATATCTCTCACTTATTTAAA | 0.0792 | 0.0978 |  |
| ACAGACGAAGGAGCCGCAAAGAAGTTATTAAGGTATGAATAATCCCCCAATATAAATATCTCTCACTTATTTAAA |  | 0.141 |  |
| ACAGACGAAGGAGCCGCAAAGAAGTTATTAAGGTATGAATAATCCCGCAATATAAATATCTCTCACTTATTTAAA |  | 0.0533 |  |
| ACAGACGAAGGAGCCGCAAAGAAGTTATTAAGGTATGAATAATCCCTAAATATAAATATCTCTCACTTATTTAAA | 0.109 | 0.168 |  |
| ACAGACGAAGGAGCCGCAAAGAAGTTATTAAGGTATGAATAATCCCTCAAAATAAATATCTCTCACTTATTTAAA | 0.108 | 0.115 |  |
| ACAGACGAAGGAGCCGCAAAGAAGTTATTAAGGTATGAATAATCCCTCAACATAAATATCTCTCACTTATTTAAA |  | 0.11 |  |
| ACAGACGAAGGAGCCGCAAAGAAGTTATTAAGGTATGAATAATCCCTCAAGATAAATATCTCTCACTTATTTAAA | 0.111 | 0.151 |  |
| ACAGACGAAGGAGCCGCAAAGAAGTTATTAAGGTATGAATAATCCCTCAATAAAAATATCTCTCACTTATTTAAA | 0.119 | 0.0613 |  |
| ACAGACGAAGGAGCCGCAAAGAAGTTATTAAGGTATGAATAATCCCTCAATACAAATATCTCTCACTTATTTAAA | 0.0986 |  |  |
| ACAGACGAAGGAGCCGCAAAGAAGTTATTAAGGTATGAATAATCCCTCAATAGAAATATCTCTCACTTATTTAAA |  | 0.0725 |  |
| ACAGACGAAGGAGCCGCAAAGAAGTTATTAAGGTATGAATAATCCCTCAATATAAAAATCTCTCACTTATTTAAA | 0.107 | 0.153 |  |
| ACAGACGAAGGAGCCGCAAAGAAGTTATTAAGGTATGAATAATCCCTCAATATAAACATCTCTCACTTATTTAAA |  | 0.124 |  |
| ACAGACGAAGGAGCCGCAAAGAAGTTATTAAGGTATGAATAATCCCTCAATATAAATATCTCTCACTTATTTAAA | 0.107 | 0.142 | 0.127 |
| ACAGACGAAGGAGCCGCAAAGAAGTTATTAAGGTATGAATAATCCCTCAATATAAATATTTCTCACTTATTTAAA |  | 0.121 |  |
| ACAGACGAAGGAGCCGCAAAGAAGTTATTAAGGTATGAATAATCCCTCAATATAAATCTCTCTCACTTATTTAAA | 0.0874 |  |  |
| ACAGACGAAGGAGCCGCAAAGAAGTTATTAAGGTATGAATAATCCCTCAATATAAATGTCTCTCACTTATTTAAA |  | 0.107 |  |
| ACAGACGAAGGAGCCGCAAAGAAGTTATTAAGGTATGAATAATCCCTCAATATAAATTTCTCTCACTTATTTAAA |  | 0.17 |  |
| ACAGACGAAGGAGCCGCAAAGAAGTTATTAAGGTATGAATAATCCCTCAATATAACTATCTCTCACTTATTTAAA |  | 0.102 |  |
| ACAGACGAAGGAGCCGCAAAGAAGTTATTAAGGTATGAATAATCCCTCAATATAATTATCTCTCACTTATTTAAA |  | 0.0923 |  |
| ACAGACGAAGGAGCCGCAAAGAAGTTATTAAGGTATGAATAATCCCTCAATATAGATATCTCTCACTTATTTAAA |  | 0.08 |  |
| ACAGACGAAGGAGCCGCAAAGAAGTTATTAAGGTATGAATAATCCCTCAATATATATATCTCTCACTTATTTAAA | 0.121 | 0.0867 |  |
| ACAGACGAAGGAGCCGCAAAGAAGTTATTAAGGTATGAATAATCCCTCAATATTAATATCTCTCACTTATTTAAA |  | 0.0645 |  |
